Assay results: US5854005A, “Platelet blockade assay” (Mount Sinai School of Medicine, priority 1996, dated 1998)
Values joined by “and” are separate entries in the source; they are usually repeats but may differ in a detail not shown here. Equal entries are not always repeated.

How the values were obtained:
thrombin receptor = details: cited from earlier work
aminopeptidase M [1] = details: incubated in plasma; cited from earlier work
GPIIb/IIIa receptor [2] = target: T1, GPIIb/IIIa receptor (Homo sapiens, UniProt P05106+P08514); experiment: GPIIb/IIIa receptor blockade assayed by radiolabeled 7E3 binding
T1 construct: GP IIb/IIIa receptor proteins, which are found on the cell surface of platelets; endogenous in cells; host or cells: platelets in citrated whole blood of donors
Protocol: (§1) Purified peak I-2 fibrinogen is coupled to 3 μm, blue carboxylated beads (obtained from Polysciences, Inc.) using a water soluble carbodiimide (EDC) by the method of Example 1. The assay is conducted by adding to a 12×75 mm glass test tube: 100 μl of buffer, 20 μl of beads (2.5% slurry), and 5 μl of isoSer-Phe-Leu-Leu-Arg-Asn. Blood is collected into citrate anticoagulant and 70 μl of the whole blood is added to the test tube, which is then capped, placed on a rocking platform, and rocked at 16 cycles/min. When normal blood was tested using 1 or 2 μM activating peptide, a 4+ agglutination endpoint was easily observed in all donors (n=10) by 2 min. […] Using 2 μM activating peptide, the assay remained positive (i.e., 1-4+) at c7E3 Fab concentrations of 0.8 (n=1), 1.2 (n=1), 1.5 (n=3), and 1.8 (n=2) μg/ml, corresponding to GPIIb/IIIa receptor blockade of 56%; 77%; 68, 68, and 82%; and 66 and 73%. The assay became negative (i.e., O+) at c7E3 Fab concentrations of 1.2 (n=1), 1.5 (n=1), 1.8 (n=3) and 2.4 (n=2) μg/ml, corresponding to GPIIb/IIIa receptor blockade of 77%; 92%; 83, 88 and 94%; and 88 and 89%. […] The percentage of receptor blockade was assayed by radiolabeled 7E3 binding as reported in Coller et al., N.Y. Acad. Sci., 614:193 (1993).

GPIIb/IIIa receptor [3] = target: T1, GPIIb/IIIa receptor; experiment: Fibrinogen-coated bead agglutination whole blood assay with activating peptide; assay type: cell-based; design: key to agglutination assay result: the assay remained positive (i.e., 1-4+); The assay became negative (i.e., O+); details: for agglutination assay result: 2 μM activating peptide
Protocol: Blood (9 volumes) is drawn from a patient by syringe and placed into standard blue-top tube containing sodium citrate (1 volume of 3.8% sodium citrate). Alternatively, blood may be drawn by Vacutainer directly into a blue-top tube. The tube is then inverted to mix the anticoagulant with the whole blood. Then 70 μl of this mixture is added to an assay tube containing 100 μl of buffer (0.15M NaCl, 0.5 mM CaCl2, 0.01M HEPES, pH 7.4), 10 μl of well-mixed fibrinogen coated beads prepared by the method of Example 1, and 5-10 µl of isoSer-Phe-Leu-Leu-Arg-Asn (SEQ ID NO:3).
The assay tube is then placed on a rocker and rocked at 20 cpm at room temperature for two minutes. The tube is removed from the rocker, held vertically to allow the blood to drain and viewed. If less than 80% of GPIIb/IIIa receptor blockade has been achieved in the patient's blood, agglutinated beads are readily seen in the streak marking where the blood tilted back and forth.
as §1

GPIIb/IIIa receptor [4] = target: T1, GPIIb/IIIa receptor; details: cited from earlier work
aminopeptidase M [5] = details: in the presence of aminopeptidase M; cited from earlier work
[6] = blood pretreated with c7E3 Fab at 5 doses between 0.8-3.0 μg/ml for about 10 minutes at 22° C.

T-14: fourteen amino acid peptide corresponding to the new N-terminus of the cleaved thrombin receptor protein (SFLLRNPNDKYEPF)
platelet aggregating activity (thrombin receptor): capable of aggregating platelets directly
ability to induce aggregation after incubation in plasma (aminopeptidase M [1]): lose their ability to induce aggregation

c7E3 Fab: GPIIb/IIIa receptor blocking agent, monoclonal antibody c7E3 Fab
GPIIb/IIIa receptor blockade (trend) (GPIIb/IIIa receptor [2]; [6]): increasing GPIIb/IIIa receptor blockade
GPIIb/IIIa receptor blockade (GPIIb/IIIa receptor [2]; c7E3 Fab 0.8 μg/ml, samples with positive agglutination assay): 56%
GPIIb/IIIa receptor blockade (GPIIb/IIIa receptor [2]; c7E3 Fab 1.2 μg/ml, samples with negative agglutination assay): 77%
GPIIb/IIIa receptor blockade (GPIIb/IIIa receptor [2]; c7E3 Fab 1.2 μg/ml, samples with positive agglutination assay): 77%
GPIIb/IIIa receptor blockade (GPIIb/IIIa receptor [2]; c7E3 Fab 1.5 μg/ml, samples with negative agglutination assay): 92%
GPIIb/IIIa receptor blockade (GPIIb/IIIa receptor [2]; c7E3 Fab 1.5 μg/ml, samples with positive agglutination assay): 68% and 82%
GPIIb/IIIa receptor blockade (GPIIb/IIIa receptor [2]; c7E3 Fab 1.8 μg/ml, samples with negative agglutination assay): 83% and 88% and 94%
GPIIb/IIIa receptor blockade (GPIIb/IIIa receptor [2]; c7E3 Fab 1.8 μg/ml, samples with positive agglutination assay): 66% and 73%
GPIIb/IIIa receptor blockade (GPIIb/IIIa receptor [2]; c7E3 Fab 2.4 μg/ml, samples with negative agglutination assay): 88% and 89%
agglutination assay result (GPIIb/IIIa receptor [3]; c7E3 Fab 0.8 μg/ml): positive
agglutination assay result (GPIIb/IIIa receptor [3]; c7E3 Fab 2.4 μg/ml): negative
agglutination of beads (GPIIb/IIIa receptor [3]; [6]): elimination of agglutination
bleeding times (GPIIb/IIIa receptor [4]; blockade of about 80% or more of GPIIb/IIIa receptors, often to times greater than thirty minutes): prolongs the bleeding times
platelet aggregation (GPIIb/IIIa receptor [4]; blockade of about 80% or more of an individual's GPIIb/IIIa receptors): abolishes platelet aggregation
antithrombotic effect (GPIIb/IIIa receptor [4]; patient with a platelet count greater than 900,000/μl, standard dose): virtually no antithrombotic effect

CC(C)C[C@@H](N)[C@H](O)C(=O)N[C@H](C(=O)N[C@H](C(=O)N[C@@H](CC(=O)O)C(=O)O)C(C)C)C(C)C [amastatin]
effect on platelet aggregation (aminopeptidase M [5]): enhance platelet aggregation

T-11: eleven amino acid peptide lacking the three C-terminal amino acids of T-14 (SFLLRNPNDKY)
platelet activation activity relative to T-6 (thrombin receptor): ~ 20%
potency relative to T-14 (thrombin receptor): twice as potent as T-14
ability to induce aggregation after incubation in plasma (aminopeptidase M [1]): lose their ability to induce aggregation

CC(=O)Oc1ccccc1C(=O)O [Aspirin, reference compound]
effect on the agglutination assay results (GPIIb/IIIa receptor [3]; Aspirin 1 mM): did not appreciably affect the results

heparin [reference compound]
effect on the agglutination assay results (GPIIb/IIIa receptor [3]; heparin 3.5 U/ml): did not appreciably affect the results
